The values below come from FireProtDB (doi:10.1021/bi301421v).

Broadly, the Tm is the temperature at the midpoint of the melting transition.

For the data set the following is noted: Helicobacter pylori (strain ATCC 700392 / 26695); pH 7.2; Thermal; CD; Tris-HCl 20 mM; transition: 2; reversible: yes; whole UniProt chain shown.

Where “and” joins values, the source holds several entries; their conditions need not be identical. Equal values may be shown once.

B1: Arginase wild type, O25949 (protein)
chain: MILVGLEAELGASKRGTDKGVRRLREALSATHGDVIKGMQTITQERCVLYKEFRYAKNFEDYYLFCKENLIPCMKEVFEKKEFPLILSSEHANMFGIFQAFRSVHKDKKIGILYLDAHADIHTAYDSDSKHIHGMPLGMVLNRVRSGFNRMSESEEKAWQKLCSLGLEKGGLEIDPKCLVYFGVRSTEQSERDVIRELQIPLFSVDAIRENMQEVVQKTKESLKAVDIIYLSLDLDIMDGKLFTSTGVRENNGLSFDELKQLLGLLLESFKDRLKAVEVTEYNPTVSIKHNNEEEKQVLEILDLIINSCKIKDKKHSFARSY
As for B1, the Tm is 70 °C and 68 °C.
